Results published in US20240293457A1 (Innovent, published 2024).

Target: T1, human CLDN18.2 on tumor cells (NUGC-4, KATO III-hCLDN18.2, DAN-G-hCLDN18.2) (human, UniProt P56856-2 1-261)
T1 construct: whole, on cells; also called Claudin18.2; DNA-G cells overexpressing Claudin18.2
Experiment: FACS binding to NUGC-4 gastric cancer cells (MFI vs Log [Conc(nM)])

EC50: 1.05 nM
B1: HB37A6 (antibody, human IgG1, kappa, V domains shown)
VH: EVQLLDSGGGLVQPGGSLRLSCAASGFTFSSYVMSWVRQAPGKGLNWVSTISHSGGSTYYADSVKGRFTISRDNSKNTLYLQMNSLRAEDTAVYYCAIDAPYYDILTGYRYWGQGTLVTVSS
VL: not shown
notes: Fully human; expressed in HEK293 cells as a full-length human IgG1 kappa monoclonal antibody
